This passage reports S-antigenicity results from patent US7597905.

In assay [1] the target is HBsAg (G145R) particles (hepatitis B virus). The experiment in a line: Auszyme II EIA kit, S-antigenicity of purified particles.
For assay [2], the target named is HBsAg particles (hepatitis B virus surface antigen L protein particles expressed in recombinant yeast carrying pGLDLIIP39-RcT) (hepatitis B virus). The description is as above.

Regarding “Auszyme II EIA kit (Dainabot Co. Ltd.) (antibody)”, the S-antigenicity in assay [1] is 0.2; in assay [2], 1.
